These results are taken from paper PMC5059453, “Structure of ubiquitylated-Rpn10 provides insight into its autoregulation mechanism” (Nature Communications, 2016).

The labels stand for the following.
T1: GST-Rpn10 vWA domain (residues 1-189) (S. cerevisiae, UniProt P38886 1-189)
T1 construct: Rpn10, S. cerevisiae, N-terminal vWA (Von Willebrand factor type A) domain, residues 1-189 (made from pGST-Rpn10 by deleting residues 190-268); also called wild-type vWA; source: expressed and purified as GST-fusion protein, size exclusion chromatography before each experiment
T1 sequence (looked up): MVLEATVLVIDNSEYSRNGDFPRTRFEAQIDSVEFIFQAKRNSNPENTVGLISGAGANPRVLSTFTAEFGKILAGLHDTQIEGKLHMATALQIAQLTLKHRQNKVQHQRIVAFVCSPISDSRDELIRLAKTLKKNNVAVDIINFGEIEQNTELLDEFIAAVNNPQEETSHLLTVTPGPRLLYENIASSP

T2: GST-Rpn10 (full-length Rpn10) (S. cerevisiae, UniProt P38886 1-268)
T2 construct: Rpn10, proteasomal ubiquitin receptor, S. cerevisiae; open reading frame encodes residues 1-268; Plasmid pGST-Rpn10; also called Rpn10 wt; wild-type full-length Rpn10; source: expressed and purified as GST-fusion protein, size exclusion chromatography before each experiment
T2 sequence (looked up): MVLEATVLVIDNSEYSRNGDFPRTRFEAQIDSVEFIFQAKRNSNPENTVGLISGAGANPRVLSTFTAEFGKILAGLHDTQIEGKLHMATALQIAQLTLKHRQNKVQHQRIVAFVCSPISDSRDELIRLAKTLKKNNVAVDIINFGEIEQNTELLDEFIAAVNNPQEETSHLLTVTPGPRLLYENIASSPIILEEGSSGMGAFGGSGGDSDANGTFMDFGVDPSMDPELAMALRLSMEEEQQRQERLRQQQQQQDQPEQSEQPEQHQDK

B1: free mono-ubiquitin (wild type) (natural protein)
chain: not shown
notes: ubiquitin (Ub), the mature 76-residue protein; also called Ub wt; source: purified, size exclusion chromatography before each experiment
B2: GST-Rpn10 UIM (domain or fragment, S. cerevisiae, UniProt P38886 223-242, looked up)
chain: SMDPELAMALRLSMEEEQQR
notes: also called its UIM alone; source: expressed and purified as GST-fusion protein, size exclusion chromatography before each experiment

Assay in all cases: SPR; α-GST antibody immobilized on a CM5 chip captures GST-Rpn10 derivatives (ligands); free mono-Ub variants as analytes; 10 mM HEPES pH 7.0, 150 mM NaCl, 0.005% polysorbate-20, 25 °C; triplicate; single-site-binding model
Conditions in all cases: both partners purified
For orientation: In SPR one partner is held on a chip, and binding of the other changes the refractive index at the surface.

The target in assay [1] is T1, GST-Rpn10 vWA domain (residues 1-189).
In assay [2] the target is T2, GST-Rpn10 (full-length Rpn10).
The target in assay [3] is B1.

As usually defined, the Kd is a measure of binding affinity in units of concentration. Higher therefore signals a looser complex. With B1, the figures for the Kd in assay [1] and in assay [2] were ~330 µM and ~270 µM, respectively.
For the molecule B2, the Kd in assay [3] is ~180 µM.
